Assay results: US20020127702A1 (University of California, published 2002)

B1: hCdc5 central domain (amino acids 365-501), His6 fusion (other)
chain: EAQNLMALTNVDTPLKGGLNTPLHESDFSGVTPQRQVVQTPNTVLSTPFRTPSNGAEGLTPRSGTTPKPVINSTPGRTPLRDKLNINPEDGMADYSDPSYVKQMERESREHLRLGLLGLPAPKNDFEIVLPENAEKE
notes: Expressed and purified in E. coli as a His6 fusion; not shown: His6 tag
B2: hCdc5 putative nuclear localization domain (amino acids 205-358), His6 fusion (other)
chain: KRGVDYNAEIPFEKKPALGFYDTSEENYQALDADFRKLRQQDLDGELRSEKEGRDRKKDKQHLKRKKESDLPSAILQTSGVSEFTKKRSKLVLPAPQISDAELQEVVKVGQASEIARQTAEESGITNSASSTLLSEYNVTNNSVALRTPRTPAS
notes: as for B1
B3: hCdc5 DNA binding domain (amino acids 1-120), His6 fusion (other)
chain: MPRIMIKGGVWRNTEDEILKAAVMKYGKNQWSRIASLLHRKSAKQCKARWYEWLDPSIKKTEWSREEEEKLLHLAKLMPTQWRTIAPIIGRTAAQCLEHYEFLLDKAAQRDNEEETTDDP
notes: Expressed and purified in E. coli as a His6 fusion; also called helix-turn-helix domain; not shown: His6 tag
B4: hCdc5 carboxyl terminal domain (amino acids 491-802), His6 fusion (other)
chain: EIVLPENAEKELEEREIDDTYIEDAADVDARKQAIRDAERVKEMKRMHKAVQKDLPRPSEVNTEILRPLNVEPPLTDLQKSEELIKKEMITMLHYDLLHHPYEPSGNKKGKTVGFGTNNSEHITYLEHNPYEKFSKEELKKAQDVLVQEMEVVKQGMSHGELSSEAYNQVWEECYSQVLYLPGQSRYTRANLASKKDRIESLEKRLEINRGHMTTEAKRAAKMEKKMKILLGGYQSRAMGLMKQLNDLWDQIEQAHLELRTFEELKKHEDSAIPRRLECLKEDVQRQQEREKELQHRYADLLLEKETLKSKF
notes: as for B1

How the values were obtained:
[1] = molecular target: B2; test: glutaraldehyde cross-linking of purified His6 fusions
[2] = molecular target: the molecule itself; test: glutaraldehyde cross-linking of purified His6 fusion
[3] = molecular target: the molecule itself; test: glutaraldehyde cross-linking of purified His6 fusion, SDS-PAGE and anti-His immunoblot
[4] = molecular target: B1; test: glutaraldehyde cross-linking of purified His6 fusions
[5] = molecular target: B3; test: as above

| binding result [1] | binding result [4] | binding result [5] | Binder | binding result [2] | binding result [3] |
| --- | --- | --- | --- | --- | --- |
| no binding | – | – | B1 | no binding | – |
| – | – | – | B2 | – | binds |
| no binding | no binding | – | B3 | – | binds |
| no binding | no binding | no binding | B4 | no binding | – |
